Here are results for 3 molecules from US20250101134A1, “ANAPLASTIC LYMPHOMA KINASE ANTIBODIES AND METHODS OF USE THEREOF” (The Children's Hospital of Philadelphia, priority 2022, published 2025).

In data set [1] the target is cell surface ALK on neuroblastoma cells (IMR32, SY5Y-D3, SY5Y) (human) (UniProt Q9UM73). Put plainly: cell-based or functional assay.
For data set [2], the target named is T1, ALK extracellular domain expressed on the cell surface of 293T cells (293T-ALK) (Homo sapiens, UniProt Q9UM73). Put plainly: cell-based or functional assay.
T1 sequence (Q9UM73 19-1038): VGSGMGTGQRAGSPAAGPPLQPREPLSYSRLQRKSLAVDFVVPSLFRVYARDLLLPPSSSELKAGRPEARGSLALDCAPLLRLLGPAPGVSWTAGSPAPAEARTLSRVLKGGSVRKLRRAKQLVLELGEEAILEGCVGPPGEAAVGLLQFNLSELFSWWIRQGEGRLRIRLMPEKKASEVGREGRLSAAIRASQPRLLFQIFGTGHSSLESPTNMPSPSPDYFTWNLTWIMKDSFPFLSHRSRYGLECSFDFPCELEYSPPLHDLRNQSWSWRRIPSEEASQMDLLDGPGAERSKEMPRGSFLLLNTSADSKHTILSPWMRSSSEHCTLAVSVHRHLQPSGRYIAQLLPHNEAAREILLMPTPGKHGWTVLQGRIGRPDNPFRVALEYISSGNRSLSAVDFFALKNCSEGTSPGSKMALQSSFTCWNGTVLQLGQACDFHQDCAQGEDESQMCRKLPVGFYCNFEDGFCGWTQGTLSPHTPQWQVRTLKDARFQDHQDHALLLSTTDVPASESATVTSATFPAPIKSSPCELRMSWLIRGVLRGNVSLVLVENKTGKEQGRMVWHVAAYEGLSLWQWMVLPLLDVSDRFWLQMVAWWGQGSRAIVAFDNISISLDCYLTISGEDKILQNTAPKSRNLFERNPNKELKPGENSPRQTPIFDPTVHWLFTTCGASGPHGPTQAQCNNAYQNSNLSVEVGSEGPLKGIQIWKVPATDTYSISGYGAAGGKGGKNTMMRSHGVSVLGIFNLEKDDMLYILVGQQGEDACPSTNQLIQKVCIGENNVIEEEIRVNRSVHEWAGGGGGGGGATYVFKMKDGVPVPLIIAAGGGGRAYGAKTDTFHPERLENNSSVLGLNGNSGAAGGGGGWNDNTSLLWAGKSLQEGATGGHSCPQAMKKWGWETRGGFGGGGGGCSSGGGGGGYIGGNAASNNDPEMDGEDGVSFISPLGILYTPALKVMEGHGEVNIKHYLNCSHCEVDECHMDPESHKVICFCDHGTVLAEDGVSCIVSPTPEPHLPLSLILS
The subject of data set [3] is 293T cells. The data set is described as follows: Flow cytometry binding of VHs to 293T cells (non-specific binding). Conditions: VH at 1 μM, anti-FLAG-PE detection. How it is done:
(§1) FIG. 1A provides a schematic of ALK. MAM1, LDLa, MAM2, G-rich, G-T domains and full-length ALK extracellular domain (ALK-Ecto) were expressed separately for phage panning. Briefly, 293T and 293T-ALK cells were stained with different VH antibodies at a concentration of 1 μM in […] PBS for 30 minutes on ice. The cells were washed with 1 mL PBS three times and incubated with anti-FLAG-PE antibody (1:200, BioLegend) for 30 minutes on ice. The FLAG tag comprises the sequence: DYKDDDDK (SEQ ID NO: 9). The stained cells were then washed with 1 mL PBS three times. Antibody binding was detected on a BD™ LSR II (BD Biosciences, San Jose, CA). Fluorescence activated cell sorting (FACS) data analysis was performed using FlowJo_V10_CL.
(§2) FIGS. 1B and 1C show the flow cytometry results with various VHs binding to ALK extracellular domain expressed on the cell surface of 293T cells (293T-ALK). VH9 and VH20 were identified with the G-rich domain antigen while VH5 and VH78 were identified with the G-T domain antigen.

Data set [4] concerns 293T-ALK cells. The data set is described as follows: Internalization of pHrodo Deep Red labelled VH20, 293T-ALK. In kind it is cell-based. Conditions: pHrodo Deep Red conjugated VH20, 24 hours, flow cytometer. How it is done:
(§3) VH20 internalization was also characterized. For the internalization studies, VH20 was conjugated with pHrodo™ Deep Red dye using the pHrodo™ Deep Red Antibody Labeling Kit (Thermo). The conjugated VH20 was incubated with 293T and 293T-ALK cells for 24 hours at different concentrations. VH20 internalization was measured by a flow cytometer.
A general note: In flow cytometry, cells or beads pass a laser one at a time.

Data set [5] addresses T2, cell surface ALK on IMR32 cells (Homo sapiens, UniProt Q9UM73).
T2 construct: endogenous in cells; host or cells: IMR32
Put plainly: FACS binding to IMR32 cells. Conditions: 1 μM, positive cell line. How it is done: (§4) The ability of VH20 bind ALK expressing cells was also studied by FACS. SK-N-AS (negative cell line), IMR32 (positive cell line), SY5Y-D3 (positive cell line) cells were stained with VH20 at a concentration of 1 μM in 200 μL PBS for 30 minutes on ice. The cells were washed with 1 mL PBS three times and incubated with anti-Flag-PE antibody (1:200, BioLegend) for 30 minutes on ice. The cells were again washed with 1 mL PBS three times. Antibody binding was detected on a BD™ LSR II (San Jose, CA). FACS data analysis was performed using FlowJo_V10_CL.

The subject of the next data set is ALK. The data set is described as follows: BLItz competition with KTN0239-IgG for ALK. Conditions: Protein A biosensor, KTN0239-IgG loaded, then ALK, then VH20. In kind it is binding. From the text: The ability of VH20 to compete with KTN0239 was also studied. KTN0239 is a humanized variant of KTN0125 (Sano et al. (2016) Cancer Res., 76(14 Suppl):Abstract2690) and can bind the G rich domain of ALK. A Protein A biosensor (18-5010, BLItz® system, ForteBio; Freemont, CA) was used to immobilization KTN0239-IgG. DPBS (pH=7.4) was used for the baseline and determine dissociation. The detection conditions used were (I) baseline 30 seconds; (II) loading KTN0239-IgG for 120 seconds; (III) baseline 30 seconds; (IV) association for 120 seconds with ALK; and (V) association for 120 seconds with VH20.

Data set [6] in a line: Aggregation by dynamic light scattering (DLS). In kind it is physicochemical. The settings on record: 5 mg/mL in PBS, 37° C., day 0 to day 14. How it is done: The 4 VHs were studied by dynamic light scattering (DLS). Briefly, VH antibodies were buffer changed with PBS and filtered with a […] filter.
Antibody concentration was adjusted to 5 mg/mL. 500 μL samples were incubated at 37° C. for DLS. Samples were measured at day 0, day 1, day 4, day 7, and day 14 on Zetasizer Nano-ZS ZEN 3600 (Malvern Instruments Limited; Malvern, UK) to determine the size distributions of protein particles.

Data set [7] concerns the target T3, ALK-Fc, a fusion of the ALK extracellular domain and human IgG1 Fc (human, UniProt Q9UM73 19-1038).
T3 construct: not shown: human IgG1 Fc
Put plainly: ELISA, ALK-Fc coated, anti-Flag-HRP detection. How it is done:
The VHs were further characterized. First, the binding affinities of the VHs were studied in an ELISA assay using a fusion protein comprising the ALK extracellular domain fused to the human IgG1 Fc (ALK-Fc). ELISA plates (Corning 3690; Tewksbury, MA) were coated with 50 μl antigen (5 μg/ml diluted with 1×PBS) at 4° C. overnight. The next day, blocking was performed with 150 μL 5% milk-PBS (Bio-RAD; Hercules, CA) at room temperature for two hours. Then, the plates were washed with 0.05% PBST three times. 3-fold serial diluted VH antibodies (in 5% PBS-Milk) was added into each well and incubated at room temperature for 1 hour and then washed with PBST 4 times. Next, 50 μL anti-Flag-HRP (1:1000 dilution in 5% PBS-Milk, Thermo; Waltham, MA) was added into each well and incubated at room temperature for 1 hour and then washed 5 times with PBST. 50 μL 3,3′,5,5′-tetramethylbenzidine (TMB) substrate (Sigma; St. Louis, MO) was added into each well and color was allowed to develop for 1-2 minutes before stopping with 50 μL H₂SO₄ (1M, Sigma). Plates were read at 450 nm absorbance. The ELISA results were analyzed using GraphPad Prism 9.0.2.
For orientation: An ELISA detects its analyte on a solid surface through an enzyme-linked reagent.

The target of data set [8] is T1, ALK extracellular domain expressed on the cell surface of 293T cells (293T-ALK). Put plainly: Flow cytometry binding of VHs to 293T-ALK cells. Also on record: expressed in transfected cells; host or cells: 293T. The settings on record: VH at 1 μM, anti-FLAG-PE detection. How it is done: as §1, §2
T1 sequence (Q9UM73 733-960 limits assumed): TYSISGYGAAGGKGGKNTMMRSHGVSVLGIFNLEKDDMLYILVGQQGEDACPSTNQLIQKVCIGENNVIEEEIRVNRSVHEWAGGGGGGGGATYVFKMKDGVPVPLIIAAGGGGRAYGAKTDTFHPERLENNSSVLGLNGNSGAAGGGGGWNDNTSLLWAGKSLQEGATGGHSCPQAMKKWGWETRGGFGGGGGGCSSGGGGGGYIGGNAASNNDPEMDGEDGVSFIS
Data set [9] in a line: Size exclusion chromatography (SEC). In kind it is physicochemical. The settings on record: Superdex 200 Increase 10/300 GL, DPBS. The method, then: VH20 was also studied by size exclusion chromatography (SEC). 200 μL (1 μg/mL) filtered samples were used for analysis. A Superdex® 200 Increase 10/300 GL column (GE Healthcare, Cat. No. 28990944) was used for the SEC. The column was calibrated with protein molecular mass standards of ferritin (440 kDa), aldolase (158 kDa), conalbumin (75 kDa), ovalbumin (44 kDa), carbonic anhydrase (29 kDa), and ribonuclease A (13.7 kDa). Protein was eluted by Dulbecco's phosphate-buffered saline (DPBS) buffer at a flow rate of 0.5 mL/minute.
Size exclusion chromatography (SEC) was also performed to characterize VH20-OKT3-Fc BiTE. Briefly, 200 μL (1 μg/mL) filtered samples were used for analysis. Superdex® 200 Increase 10/300 GL columns (GE Healthcare, Cat. No. 28990944) were used. The column was calibrated with protein molecular mass standards of ferritin (440 kDa), aldolase (158 kDa), conalbumin (75 kDa), ovalbumin (44 kDa), carbonic anhydrase (29 kDa), and ribonuclease A (13.7 kDa). Protein was eluted by DPBS buffer at a flow rate of 0.5 mL/minute.
In general terms: SEC sorts molecules by how far they enter the pores of the column.

The test system of the next data set is SK-N-AS cells. The data set is described as follows: FACS binding to SK-N-AS cells (negative cell line). Conditions: 1 μM. The method, then: as §4
Data set [10] concerns 293T cells. Put plainly: Internalization of pHrodo Deep Red labelled VH20, 293T. In kind it is cell-based. Conditions: pHrodo Deep Red conjugated VH20, 24 hours, flow cytometer. How it is done:
as §3

The subject of data set [11] is cell surface ALK on SY5Y-D3 cells. Put plainly: FACS binding to SY5Y-D3 cells. Conditions: 1 μM, positive cell line. How it is done: as §4
Data set [12] deals with 293T-ALK cells. Put plainly: Anti-ALK CAR-T cell cytotoxicity (LDH release). In kind it is cell-based. The settings on record: CAR-T cells comprising the VH, effector:target 1.25:1 to 20:1, 48 hours. The method, then:
The cytotoxicity of anti-ALK CAR-T cells against 293T and 293T-ALK cells was also studied. Anti-ALK CAR-T cells (effector cells) were incubated with 293T and 293T-ALK cells at the effector: target ratios of 1.25:1, 2.5:1, 5:1, 10:1 and 20:1 for 48 hours in a 96-well cell culture plate (Corning). The co-cultures of CAR-T cells with 293T cells were used as negative controls. Cytotoxicity was determined by detecting specific lactate dehydrogenase (LDH) released into the medium from the target cells with cytotoxicity LDH detection kit (Promega) according to the manufacturer's instructions. Percent cytotoxicity was calculated with the following formula: Cytotoxicity (%)=(Experimental lysis−Effector spontaneous lysis−Target spontaneous lysis)/(Target maximum lysis−Target spontaneous lysis)×100%. Anti-ALK CAR-T cells were co-cultured with 293T cells as negative controls.

T3 sequence (Q9UM73 19-1038): as the sequence (Q9UM73 19-1038) above
cell surface ALK on neuroblastoma cells (IMR32, SY5Y-D3, SY5Y) (human), sequence (Q9UM73 19-1620): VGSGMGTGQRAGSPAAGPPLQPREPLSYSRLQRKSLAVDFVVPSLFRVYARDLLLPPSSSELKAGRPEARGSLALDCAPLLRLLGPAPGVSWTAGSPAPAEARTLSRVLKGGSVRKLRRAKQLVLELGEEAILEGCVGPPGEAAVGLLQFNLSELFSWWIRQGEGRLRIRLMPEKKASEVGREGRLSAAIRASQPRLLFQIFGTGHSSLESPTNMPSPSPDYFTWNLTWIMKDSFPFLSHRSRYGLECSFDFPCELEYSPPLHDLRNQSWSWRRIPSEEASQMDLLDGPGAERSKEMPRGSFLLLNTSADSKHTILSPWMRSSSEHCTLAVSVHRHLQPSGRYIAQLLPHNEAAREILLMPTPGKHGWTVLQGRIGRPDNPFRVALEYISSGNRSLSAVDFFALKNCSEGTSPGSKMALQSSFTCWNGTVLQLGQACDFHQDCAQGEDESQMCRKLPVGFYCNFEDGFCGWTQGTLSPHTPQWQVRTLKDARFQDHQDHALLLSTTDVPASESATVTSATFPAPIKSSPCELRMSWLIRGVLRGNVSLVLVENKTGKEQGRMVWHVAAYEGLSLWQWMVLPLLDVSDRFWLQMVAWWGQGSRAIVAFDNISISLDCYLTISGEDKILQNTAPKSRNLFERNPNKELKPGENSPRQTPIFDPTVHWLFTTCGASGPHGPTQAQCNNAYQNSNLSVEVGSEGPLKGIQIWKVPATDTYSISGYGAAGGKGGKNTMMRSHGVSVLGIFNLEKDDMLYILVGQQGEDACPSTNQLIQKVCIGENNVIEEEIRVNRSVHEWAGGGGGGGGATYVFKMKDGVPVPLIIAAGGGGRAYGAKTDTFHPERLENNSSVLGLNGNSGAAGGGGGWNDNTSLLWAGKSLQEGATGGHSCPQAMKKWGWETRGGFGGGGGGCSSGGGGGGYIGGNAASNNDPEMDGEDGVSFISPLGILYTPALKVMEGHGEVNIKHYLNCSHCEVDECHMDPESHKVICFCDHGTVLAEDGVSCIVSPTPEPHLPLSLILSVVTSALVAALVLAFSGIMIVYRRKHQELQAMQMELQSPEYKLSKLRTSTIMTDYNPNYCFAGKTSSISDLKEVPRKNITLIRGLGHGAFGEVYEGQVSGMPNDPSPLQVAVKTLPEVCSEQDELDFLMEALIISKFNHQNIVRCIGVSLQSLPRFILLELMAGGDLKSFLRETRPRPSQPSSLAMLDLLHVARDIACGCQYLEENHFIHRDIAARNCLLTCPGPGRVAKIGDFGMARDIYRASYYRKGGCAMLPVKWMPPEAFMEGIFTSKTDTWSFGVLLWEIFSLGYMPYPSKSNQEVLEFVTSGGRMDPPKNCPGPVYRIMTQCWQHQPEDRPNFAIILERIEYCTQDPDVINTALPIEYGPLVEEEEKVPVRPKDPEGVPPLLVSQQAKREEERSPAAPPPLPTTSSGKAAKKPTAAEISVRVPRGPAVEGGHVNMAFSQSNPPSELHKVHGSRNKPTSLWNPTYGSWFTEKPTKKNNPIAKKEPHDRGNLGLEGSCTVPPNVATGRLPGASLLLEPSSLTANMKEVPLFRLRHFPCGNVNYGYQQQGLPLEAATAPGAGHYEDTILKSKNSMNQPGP
cell surface ALK on SY5Y-D3 cells, sequence (Q9UM73 19-1038 limits assumed): as the sequence (Q9UM73 19-1038) above
T2 sequence (Q9UM73 19-1620): as the sequence (Q9UM73 19-1620) above

B1: VH20-OKT3-Fc BiTE (bispecific antibody, part only; not given: anti-CD3 scFv, linkers and Fc, not shown: a dimerising Fc or GST)
chain (part 1 of 2), part: EVQLVESGGGVVQPGRSLRLSCAASGFTFSSYAMHWVRQAPGKGLEWVAAIWYDGSNQYYADSVKGRFTISRDDSTNTLYLQMNSLRAEDTALYYCAKSSYYDSSGYYFPYGYWGQGTLVTVSS
chain (part 2 of 2), part: HHHHHH
B1: in data set [1], the cytotoxicity IC50 on IMR32 cells (LDH release, activated Pan-T cells, E:T=4:1, 24 hours) came to 0.1 nM and the cytotoxicity IC50 on SY5Y cells (LDH release, activated Pan-T cells, E:T=4:1, 24 hours) turned out to be 0.15 nM. The molecule also showed a cytotoxicity IC50 (LDH release, activated Pan-T cells, E:T=4:1, 24 hours) in data set [2] of 0.01 nM.

B2: VH20 (other)
VH: EVQLVESGGGVVQPGRSLRLSCAASGFTFSSYAMHWVRQAPGKGLEWVAAIWYDGSNQYYADSVKGRFTISRDDSTNTLYLQMNSLRAEDTALYYCAKSSYYDSSGYYFPYGYWGQGTLVTVSS
notes: Single-domain antibody (isolated VH domain) found by phage panning on the ALK G-rich domain antigen; For the internalization assay it was labelled with pHrodo Deep Red dye
The EC50 is the concentration that produces a half-maximal response. Low values mean an effect from little substance, high ones a need for much substance. Turning to B2, in the data set on 293T cells [3], the “non-specific binding with 293T cells” value is “no significant non-specific binding”. In the data set with 293T-ALK cells [4], the “internalization into 293T-ALK cells” value is “effectively internalized”. For the same molecule, the “binding cell surface ALK on IMR32 cells” value in data set [5] is listed as “capable of binding”. Further, the “competition with KTN0239-IgG” value in the data set with ALK is reported as “not in competition”. In [6], the “aggregation by DLS” value is “lower aggregation”. In data set [7], this molecule came in with an EC50 of about 0.4 nM. Also, in [8], the “binding with 293T-ALK cells” value is “good binding”. Besides, the “oligomeric state by SEC” value in data set [9] was “dimer”. The “binding to SK-N-AS cells” value in the data set with SK-N-AS cells was “not”. For the same molecule, in the data set with 293T cells [10], the “non-specific internalization in 293T cells” value is “no non-specific internalization was detected”. For the same molecule, the “binding cell surface ALK on SY5Y-D3 cells” value in [11] is reported as “capable of binding”.

B3: VH78 (other)
VH: EVQLVESGGGVVQPGRSLRLSCAASGFTFSSYAMHWVRQAPGKGLEWMGIIYPGDSDTRYSPSFQGHVTISRDDSTNTLYLQMNSLRAEDTATYYCARERGWQDAFDIWGQGTLVTVSS
notes: Single-domain antibody (isolated VH domain) found with the ALK G-T domain antigen
As for B3, the “non-specific binding with 293T cells” value in the data set with 293T cells [3] is “no significant non-specific binding”. In the data set on 293T-ALK cells [12], the “cytotoxicity of anti-ALK CAR-T cells” value is reported as “greater cytotoxicity”. For the same molecule, in data set [7], the EC50 was about 1.32 nM. For the same molecule, the “binding with 293T-ALK cells” value in data set [8] is “good binding”.
